We go through 40 variants from the Human Domainome abundance scans (Beltran et al. 2025).

± gives the uncertainty stated by the source.

The labels stand for the following.
B1: Lysine-specific demethylase 2B, residues 656 to 722; numbered along this chain, Q8NHM5 (parent)
chain: LPHTAVCLVCGEAGKEDTVEEEEGKFNLMLMECSICNEIIHPGCLKIKESEGVVNDELPNCWECPKC

The series covers variants of B1. The series can be described thus: abundance fitness (aPCA) (normalised: wild type 0, dead -1); higher = more abundant; growth selection in yeast, the domain comes from the species named. As to conditions: Homo sapiens.
With LPHTAVCLVCGEAGKEDTVEEEEGKFNLMLMECSICNEIIHDGCLKIKESEGVVNDELPNCWECPKC [P42D], the abundance fitness is -0.644 ± 0.22.
Regarding LPHTAVCLVCGEAGKEDTVEEEEGKFNLMLMECSICNEIIHMGCLKIKESEGVVNDELPNCWECPKC [P42M], the abundance fitness is -0.52 ± 0.22.
Take LPHTAVCLVCGEAGKEDTVEEEEGKFNLMLMECSICNEIIHLGCLKIKESEGVVNDELPNCWECPKC [P42L]: the abundance fitness was -0.317 ± 0.079.
With LPHTAVCLVCGEAGKEDTVEEEEGKFNLMLMECSICNEIIHTGCLKIKESEGVVNDELPNCWECPKC [P42T], the abundance fitness was -0.568 ± 0.18.
The result for LPHTAVCLVCGEAGKEDTVEEEEGKFNLMLMECSICNEIIHEGCLKIKESEGVVNDELPNCWECPKC [P42E] reads -0.537 ± 0.093; that for LPHTAVCLVCGEAGKEDTVEEEEGKFNLMLMECSICNEIIHHGCLKIKESEGVVNDELPNCWECPKC [P42H], 0.019 ± 0.18; that for LPHTAVCLVCGEAGKEDTVEEEEGKFNLMLMECSICNEIIHKGCLKIKESEGVVNDELPNCWECPKC [P42K], -0.285 ± 0.15.
Regarding LPHTAVCLVCGEAGKEDTVEEEEGKFNLMLMECSICNEIIHGGCLKIKESEGVVNDELPNCWECPKC [P42G], the abundance fitness was -0.302 ± 0.076.
LPHTAVCLVCGEAGKEDTVEEEEGKFNLMLMECSICNEIIHWGCLKIKESEGVVNDELPNCWECPKC [P42W]: the abundance fitness was -0.32 ± 0.1.
In the case of LPHTAVCLVCGEAGKEDTVEEEEGKFNLMLMECSICNEIIHYGCLKIKESEGVVNDELPNCWECPKC [P42Y], the abundance fitness is 0.122 ± 0.27.
Take LPHTAVCLVCGEAGKEDTVEEEEGKFNLMLMECSICNEIIHQGCLKIKESEGVVNDELPNCWECPKC [P42Q]: the abundance fitness was -0.189 ± 0.23.
Regarding LPHTAVCLVCGEAGKEDTVEEEEGKFNLMLMECSICNEIIHCGCLKIKESEGVVNDELPNCWECPKC [P42C], the abundance fitness was -0.355 ± 0.21.
With LPHTAVCLVCGEAGKEDTVEEEEGKFNLMLMECSICNEIIHAGCLKIKESEGVVNDELPNCWECPKC [P42A], the abundance fitness was -0.34 ± 0.09.
As for LPHTAVCLVCGEAGKEDTVEEEEGKFNLMLMECSICNEIIHRGCLKIKESEGVVNDELPNCWECPKC [P42R], the abundance fitness is -0.134 ± 0.063.
On to LPHTAVCLVCGEAGKEDTVEEEEGKFNLMLMECSICNEIIHVGCLKIKESEGVVNDELPNCWECPKC [P42V], for which the abundance fitness is -0.423 ± 0.13.
As to LPHTAVCLVCGEAGKEDTVEEEEGKFNLMLMECSICNEIIHFGCLKIKESEGVVNDELPNCWECPKC [P42F], the abundance fitness is -0.272 ± 0.19.
Consider LPHTAVCLVCGEAGKEDTVEEEEGKFNLMLMECSICNEIIYPGCLKIKESEGVVNDELPNCWECPKC [H41Y], for which the abundance fitness was -0.912 ± 0.33.
Consider LPHTAVCLVCGEAGKEDTVEEEEGKFNLMLMECSICNEIIQPGCLKIKESEGVVNDELPNCWECPKC [H41Q], for which the abundance fitness was -0.952 ± 0.21.
Under LPHTAVCLVCGEAGKEDTVEEEEGKFNLMLMECSICNEIITPGCLKIKESEGVVNDELPNCWECPKC [H41T] stands -0.784 ± 0.16; under LPHTAVCLVCGEAGKEDTVEEEEGKFNLMLMECSICNEIIRPGCLKIKESEGVVNDELPNCWECPKC [H41R], -0.943 ± 0.12.
Turning to LPHTAVCLVCGEAGKEDTVEEEEGKFNLMLMECSICNEIILPGCLKIKESEGVVNDELPNCWECPKC [H41L], the abundance fitness is -0.925 ± 0.14.
Take LPHTAVCLVCGEAGKEDTVEEEEGKFNLMLMECSICNEIIWPGCLKIKESEGVVNDELPNCWECPKC [H41W]: the abundance fitness is -0.913 ± 0.14.
Consider LPHTAVCLVCGEAGKEDTVEEEEGKFNLMLMECSICNEIIEPGCLKIKESEGVVNDELPNCWECPKC [H41E], for which the abundance fitness is -0.997 ± 0.18.
Regarding LPHTAVCLVCGEAGKEDTVEEEEGKFNLMLMECSICNEIISPGCLKIKESEGVVNDELPNCWECPKC [H41S], the abundance fitness was -1.03 ± 0.27.
With LPHTAVCLVCGEAGKEDTVEEEEGKFNLMLMECSICNEIIKPGCLKIKESEGVVNDELPNCWECPKC [H41K], the abundance fitness was -0.278 ± 0.16.
Regarding LPHTAVCLVCGEAGKEDTVEEEEGKFNLMLMECSICNEIIVPGCLKIKESEGVVNDELPNCWECPKC [H41V], the abundance fitness is -1.21 ± 0.44.
As for LPHTAVCLVCGEAGKEDTVEEEEGKFNLMLMECSICNEIIAPGCLKIKESEGVVNDELPNCWECPKC [H41A], the abundance fitness was -0.931 ± 0.22.
Turning to LPHTAVCLVCGEAGKEDTVEEEEGKFNLMLMECSICNEIIGPGCLKIKESEGVVNDELPNCWECPKC [H41G], the abundance fitness is -0.903 ± 0.12.
With LPHTAVCLVCGEAGKEDTVEEEEGKFNLMLMECSICNEIICPGCLKIKESEGVVNDELPNCWECPKC [H41C], the abundance fitness is -0.767 ± 0.25.
The result for LPHTAVCLVCGEAGKEDTVEEEEGKFNLMLMECSICNEIIHPLCLKIKESEGVVNDELPNCWECPKC [G43L] reads -0.536 ± 0.088; that for LPHTAVCLVCGEAGKEDTVEEEEGKFNLMLMECSICNEIIHPYCLKIKESEGVVNDELPNCWECPKC [G43Y], -0.02 ± 0.2.
As for LPHTAVCLVCGEAGKEDTVEEEEGKFNLMLMECSICNEIIHPMCLKIKESEGVVNDELPNCWECPKC [G43M], the abundance fitness amounted to 0.113 ± 0.099.
For LPHTAVCLVCGEAGKEDTVEEEEGKFNLMLMECSICNEIIHPWCLKIKESEGVVNDELPNCWECPKC [G43W], the abundance fitness is -0.52 ± 0.12.
For the variant LPHTAVCLVCGEAGKEDTVEEEEGKFNLMLMECSICNEIIHPNCLKIKESEGVVNDELPNCWECPKC [G43N], the abundance fitness was -0.195 ± 0.22.
The result for LPHTAVCLVCGEAGKEDTVEEEEGKFNLMLMECSICNEIIHPHCLKIKESEGVVNDELPNCWECPKC [G43H] reads -0.433 ± 0.32.
On to LPHTAVCLVCGEAGKEDTVEEEEGKFNLMLMECSICNEIIHPQCLKIKESEGVVNDELPNCWECPKC [G43Q], for which the abundance fitness was -0.383 ± 0.13.
Take LPHTAVCLVCGEAGKEDTVEEEEGKFNLMLMECSICNEIIHPTCLKIKESEGVVNDELPNCWECPKC [G43T]: the abundance fitness is -0.375 ± 0.11.
Under LPHTAVCLVCGEAGKEDTVEEEEGKFNLMLMECSICNEIIHPCCLKIKESEGVVNDELPNCWECPKC [G43C] stands -0.395 ± 0.12.
Regarding LPHTAVCLVCGEAGKEDTVEEEEGKFNLMLMECSICNEIIHPKCLKIKESEGVVNDELPNCWECPKC [G43K], the abundance fitness is -0.219 ± 0.13.
As to LPHTAVCLVCGEAGKEDTVEEEEGKFNLMLMECSICNEIIHPRCLKIKESEGVVNDELPNCWECPKC [G43R], the abundance fitness was -0.173 ± 0.065.
